# T1: mouse FcγRIII extracellular domain, His-tagged GST fusion (mouse, UniProt P08508 31-215)
# T1 construct: extracellular domain; also called Mouse III
# T1 sequence (looked up): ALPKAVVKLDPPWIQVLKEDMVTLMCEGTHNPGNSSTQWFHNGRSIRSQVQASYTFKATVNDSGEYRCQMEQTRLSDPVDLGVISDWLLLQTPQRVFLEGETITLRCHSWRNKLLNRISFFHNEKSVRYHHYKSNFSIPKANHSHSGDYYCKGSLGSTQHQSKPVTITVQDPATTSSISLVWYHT
# T2: mouse FcγRI extracellular domain, His-tagged GST fusion (mouse, UniProt P26151 25-297)
# T2 construct: extracellular domain; also called Mouse I
# T2 sequence (looked up): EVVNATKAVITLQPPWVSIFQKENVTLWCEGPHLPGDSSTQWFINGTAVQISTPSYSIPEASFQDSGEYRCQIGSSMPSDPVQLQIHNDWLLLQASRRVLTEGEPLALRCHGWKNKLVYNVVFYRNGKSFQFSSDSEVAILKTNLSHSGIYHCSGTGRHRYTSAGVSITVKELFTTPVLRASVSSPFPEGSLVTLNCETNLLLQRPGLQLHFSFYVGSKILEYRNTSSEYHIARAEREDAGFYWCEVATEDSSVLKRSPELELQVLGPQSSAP
# T3: mouse FcγRII extracellular domain, His-tagged GST fusion (mouse, UniProt P08101 30-210)
# T3 construct: extracellular domain; also called Mouse II
# T3 sequence (looked up): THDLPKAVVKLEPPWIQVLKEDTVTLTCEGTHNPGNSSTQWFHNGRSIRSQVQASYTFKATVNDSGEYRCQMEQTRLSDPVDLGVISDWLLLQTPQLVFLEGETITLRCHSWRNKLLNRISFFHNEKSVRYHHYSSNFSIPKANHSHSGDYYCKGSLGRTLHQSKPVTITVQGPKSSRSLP
# T4: human FcγRIIb extracellular domain, His-tagged GST fusion (human, UniProt P31994 43-217)
# T4 construct: extracellular domain; also called hFcgRIIb; Human IIb
# T4 sequence (looked up): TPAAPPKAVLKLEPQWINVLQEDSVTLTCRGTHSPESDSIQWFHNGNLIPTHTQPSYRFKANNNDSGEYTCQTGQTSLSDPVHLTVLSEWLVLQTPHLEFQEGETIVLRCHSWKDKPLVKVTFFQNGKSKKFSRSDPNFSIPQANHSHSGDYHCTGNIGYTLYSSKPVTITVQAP
# T5: human FcγRIIa extracellular domain, His-tagged GST fusion (human, UniProt P12318 34-217)
# T5 construct: extracellular domain; also called hFcgRIIa; Human IIa
# T5 sequence (looked up): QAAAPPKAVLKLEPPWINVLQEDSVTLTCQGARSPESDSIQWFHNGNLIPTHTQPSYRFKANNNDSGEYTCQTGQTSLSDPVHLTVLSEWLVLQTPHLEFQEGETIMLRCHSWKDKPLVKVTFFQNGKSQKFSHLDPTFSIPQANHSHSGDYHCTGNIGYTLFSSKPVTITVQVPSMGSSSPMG
# What was measured:
# [1] = molecular target: human BR3 expressed on cells (human, UniProt Q96RJ3 1-184); test: cell-based or functional assay
# [2] = molecular target: T6, human FcγRI extracellular domain, His-tagged GST fusion (human, UniProt P12314 16-292); test: ELISA, captured FcgR-GST; EC50herceptin/EC50sample
# T6 construct: extracellular domain; also called hFcgRI; Human I
# [3] = molecular target: T1, mouse FcγRIII extracellular domain, …; test: ELISA, captured FcgR-GST; EC50herceptin/EC50sample
# [4] = molecular target: T2, mouse FcγRI extracellular domain, …; test: ELISA, captured FcgR-GST; EC50herceptin/EC50sample
# [5] = molecular target: T3, mouse FcγRII extracellular domain, …; test: ELISA, captured FcgR-GST; EC50herceptin/EC50sample
# [6] = molecular target: T4, human FcγRIIb extracellular domain, …; test: ELISA, captured FcgR-GST; EC50herceptin/EC50sample
# [7] = molecular target: T5, human FcγRIIa extracellular domain, …; test: ELISA, captured FcgR-GST; EC50herceptin/EC50sample
# [8] = molecular target: T6, human FcγRI extracellular domain, …; test: ELISA, captured FcgR-GST; A450 ratio to 9.1RF
# [9] = molecular target: T4, human FcγRIIb extracellular domain, …; test: ELISA, captured FcgR-GST; A450 ratio to 9.1RF
# [10] = molecular target: T5, human FcγRIIa extracellular domain, …; test: ELISA, captured FcgR-GST; A450 ratio to 9.1RF
# [11] = molecular target: T5, human FcγRIIa extracellular domain, …; test: ELISA, receptor-His-GST captured by anti-GST, IgG complexed with anti-kappa F(ab')2
# human FcRn [12] = molecular target: T7, human FcRn (human, UniProt P55899 24-297; P61769 21-119, limits assumed); test: SPR, FcRn on chip, kinetic, pH 6.0 (KDa)
# T7 construct: construct not described; also called huFcRn
# cynomolgus FcRn [13] = molecular target: T8, cynomolgus FcRn (cynomolgus monkey, UniProt Q8SPV9 24-297; Q8SPW0 21-119, limits assumed); test: SPR, FcRn on chip, kinetic, pH 6.0 (KDa)
# T8 construct: construct not described; also called cynoFcRn; cyno FcRn
# human FcRn [14] = molecular target: T7, human FcRn; test: SPR, FcRn on chip, equilibrium, pH 6.0 (KDb)
# cynomolgus FcRn [15] = molecular target: T8, cynomolgus FcRn; test: SPR, FcRn on chip, equilibrium, pH 6.0 (KDb)
# [16] = molecular target: T6, human FcγRI extracellular domain, …; test: ELISA, receptor-His-GST captured by anti-GST, uncomplexed IgG
# human FcRn [17] = molecular target: T7, human FcRn; test: SPR, FcRn on chip, kinetic, pH 6
# cynomolgus FcRn [18] = molecular target: T8, cynomolgus FcRn; test: SPR, FcRn on chip, kinetic, pH 6
Binder,ADCC activity relative to 9.1wt (relative EC50 values) [1] [fold],"ADCC on BJAB cells (LDH release), EC50 [1] [nM]",fold improvement in binding vs Herceptin [2] [fold],fold improvement in binding vs Herceptin [3] [fold],fold improvement in binding vs Herceptin [4] [fold],fold improvement in binding vs Herceptin [5] [fold],fold improvement in binding vs Herceptin [6] [fold],fold improvement in binding vs Herceptin [7] [fold],binding relative to 9.1RF [8] [ratio],binding relative to 9.1RF [9] [ratio],binding relative to 9.1RF [10] [ratio],EC50 (read off the curve) [11] [µg/mL],Kd (human FcRn [12]) [nM],Kd (cynomolgus FcRn [13]) [nM],Kd (human FcRn [14]) [nM],Kd (cynomolgus FcRn [15]) [nM],EC50 (read off the curve) [16] [µg/mL],koff (human FcRn [17]) [s⁻¹],kon (human FcRn [17]) [M⁻¹ s⁻¹],koff (cynomolgus FcRn [18]) [s⁻¹],also measured
"9.1RF N434A IgG (antibody, produced in CHO cells; copies: 2 + 2) light: DIQMTQSPSSLSASVGDRVTITCKSSQSLLYSSNQNNYLAWYQQKPGKAPKLLIYWASTRESGVPSRFSGSGSGTDFTLTISSLQPEDFATYYCQQYYTYPYTFGQGTKVEIKRTVAAPSVFIFPPSDEQLKSGTASVVCLLNNFYPREAKVQWKVDNALQSGNSQESVTEQDSKDSTYSLSSTLTLSKADYEKHKVYACEVTHQGLSSPVTKSFNRGEC heavy: not shown",–,–,–,–,–,–,–,–,0.97,0.45,0.66,~2,52.8,56.5,66.6,62.7,~0.006,0.0467,884000,0.0962,kon (cynomolgus FcRn [18]): 1.7e+06 M⁻¹ s⁻¹
"9.1RF N434W IgG (antibody, produced in CHO cells; copies: 2 + 2) light: DIQMTQSPSSLSASVGDRVTITCKSSQSLLYSSNQNNYLAWYQQKPGKAPKLLIYWASTRESGVPSRFSGSGSGTDFTLTISSLQPEDFATYYCQQYYTYPYTFGQGTKVEIKRTVAAPSVFIFPPSDEQLKSGTASVVCLLNNFYPREAKVQWKVDNALQSGNSQESVTEQDSKDSTYSLSSTLTLSKADYEKHKVYACEVTHQGLSSPVTKSFNRGEC heavy: not shown",–,–,–,–,–,–,–,–,1,0.4,0.64,~2,2.37,3.03,5.8,5.1,~0.006,0.0102,4.31e+06,0.0144,kon (cynomolgus FcRn [18]): 4.74e+06 M⁻¹ s⁻¹

# More lines, main results first:
ADCC activity relative to 9.1wt (relative EC50 values) [1] [fold],"ADCC on BJAB cells (LDH release), EC50 [1] [nM]",fold improvement in binding vs Herceptin [2] [fold],fold improvement in binding vs Herceptin [3] [fold],fold improvement in binding vs Herceptin [4] [fold],fold improvement in binding vs Herceptin [5] [fold],fold improvement in binding vs Herceptin [6] [fold],fold improvement in binding vs Herceptin [7] [fold],binding relative to 9.1RF [8] [ratio],binding relative to 9.1RF [9] [ratio],binding relative to 9.1RF [10] [ratio],EC50 (read off the curve) [11] [µg/mL],Kd (human FcRn [12]) [nM],Kd (cynomolgus FcRn [13]) [nM],Kd (human FcRn [14]) [nM],Kd (cynomolgus FcRn [15]) [nM],EC50 (read off the curve) [16] [µg/mL],koff (human FcRn [17]) [s⁻¹],kon (human FcRn [17]) [M⁻¹ s⁻¹],koff (cynomolgus FcRn [18]) [s⁻¹],Binder,also measured
2.8,< 1,0.7,0.6,2.5,0.4,0.4,0.2,–,–,–,–,–,–,–,–,–,–,–,–,"9.1RF S298A/E333A/K334A IgG (antibody, Fc variant of 9.1RF, transient CHO expression; copies: 2 + 2) light: DIQMTQSPSSLSASVGDRVTITCKSSQSLLYSSNQNNYLAWYQQKPGKAPKLLIYWASTRESGVPSRFSGSGSGTDFTLTISSLQPEDFATYYCQQYYTYPYTFGQGTKVEIKRTVAAPSVFIFPPSDEQLKSGTASVVCLLNNFYPREAKVQWKVDNALQSGNSQESVTEQDSKDSTYSLSSTLTLSKADYEKHKVYACEVTHQGLSSPVTKSFNRGEC heavy: EVQLVESGGGLVQPGGSLRLSCAASGFTVTAYYMSWVRQAPGKGLEWVGFIRDKANGYTTEYNPSVKGRFTISRDTSKNTFYLQMNSLRAEDTAVYYCAQVRRALDYWGQGTLVTVSSASTKGPSVFPLAPSSKSTSGGTAALGCLVKDYFPEPVTVSWNSGALTSGVHTFPAVLQSSGLYSLSSVVTVPSSSLGTQTYICNVNHKPSNTKVDKKVEPKSCDKTHTCPPCPAPELLGGPSVFLFPPKPKDTLMISRTPEVTCVVVDVSHEDPEVKFNWYVDGVEVHNAKTKPREEQYNATYRVVSVLTVLHQDWLNGKEYKCKVSNKALPAPIAATISKAKGQPREPQVYTLPPSREEMTKNQVSLTCLVKGFYPSDIAVEWESNGQPENNYKTTPPVLDSDGSFFLYSKLTVDKSRWQQGNVFSCSVMHEALHNHYTQKSLSLSPG",–
3,< 1,0.6,1.2,1.9,1.3,0.7,0.2,–,–,–,–,–,–,–,–,–,–,–,–,"9.1RF S298A/K326A/E333A/K334A IgG (antibody, Fc variant of 9.1RF, transient CHO expression; copies: 2 + 2) light: DIQMTQSPSSLSASVGDRVTITCKSSQSLLYSSNQNNYLAWYQQKPGKAPKLLIYWASTRESGVPSRFSGSGSGTDFTLTISSLQPEDFATYYCQQYYTYPYTFGQGTKVEIKRTVAAPSVFIFPPSDEQLKSGTASVVCLLNNFYPREAKVQWKVDNALQSGNSQESVTEQDSKDSTYSLSSTLTLSKADYEKHKVYACEVTHQGLSSPVTKSFNRGEC heavy: EVQLVESGGGLVQPGGSLRLSCAASGFTVTAYYMSWVRQAPGKGLEWVGFIRDKANGYTTEYNPSVKGRFTISRDTSKNTFYLQMNSLRAEDTAVYYCAQVRRALDYWGQGTLVTVSSASTKGPSVFPLAPSSKSTSGGTAALGCLVKDYFPEPVTVSWNSGALTSGVHTFPAVLQSSGLYSLSSVVTVPSSSLGTQTYICNVNHKPSNTKVDKKVEPKSCDKTHTCPPCPAPELLGGPSVFLFPPKPKDTLMISRTPEVTCVVVDVSHEDPEVKFNWYVDGVEVHNAKTKPREEQYNATYRVVSVLTVLHQDWLNGKEYKCKVSNAALPAPIAATISKAKGQPREPQVYTLPPSREEMTKNQVSLTCLVKGFYPSDIAVEWESNGQPENNYKTTPPVLDSDGSFFLYSKLTVDKSRWQQGNVFSCSVMHEALHNHYTQKSLSLSPG",–

# — patent publication US20100280227A1 (Genentech, published 2010)
